# Laboratory results: patent US7090834B1, “Vascular endothelial cell growth factor variants and uses thereof” (Genentech, Inc., priority 1999, dated 2006)
# Substitutions are numbered along the chain they refer to. Numbers in names are those of the source.
# B1: LK-VRB-2s* (ligand, human, UniProt P15692-4 27-135, looked up)
# chain: APMAEGGGQNHHEVVKFMDVYQRSYCHPIETLVDIFQEYPDEIEYIFKPSCVPLMRCGGCCNSEMRECVPTEESNITMQIMRIKPHQGQHIGEMSFLQHNKCECRPKKD
# B2: LK-VRB-2f (ligand, human, UniProt P15692-4 27-191, looked up)
# chain: APMAEGGGQNHHEVVKFMDVYQRSYCHPIETLVDIFQEYPDEIEYIFKPSCVPLMRCGGCCNSEMRECVPTEESNITMQIMRIKPHQGQHIGEMSFLQHNKCECRPKKDRARQENPCGPCSERRKHLFVQDPQTCKCSCKNTDSRCKARQLELNERTCRCDKPRR
# B3: LK-VRB-19s (ligand, human, UniProt P15692-4 27-135, looked up)
# chain: B1 chain with M18E, Q22R, Y25S
# notes: one of the two is probably misprinted
# B4: LK-VRB-3s: VEGF (1–109) variant with F17I/M18E/Y21F/Q22K/Y25S (protein)
# chain: B1 chain with F17I, M18E, Y21F, Q22K, Y25S, S63D, M65G, R66L
# B5: LK-VRB-5s: VEGF (1–109) variant with D63S/L66R (protein)
# chain: B1 chain with M65G
# B6: LK-VRB-6s: VEGF (1–109) variant with D63S/G65A/L66T (protein)
# chain: B1 chain with M65A, R66T
# B7: LK-VRB-4s: VEGF (1–109) variant with F17I/M18E/Y21F/Q22E/Y25I (protein)
# chain: B1 chain with F17I, M18E, Y21F, Q22E, Y25I, S63D, M65G, R66L
# B8: LK-VRB-20s (ligand, human, UniProt P15692-4 27-135, looked up)
# chain: B1 chain with Y21L, Q22R, Y25S
# B9: LK-VRB-16s (ligand, human, UniProt P15692-4 27-135, looked up)
# chain: B1 chain with Q22R, Y25S
# B10: LK-VRB-14s (ligand, human, UniProt P15692-4 27-135, looked up)
# chain: B1 chain with Y21L, Q22R
# B11: LK-VRB-15s (ligand, human, UniProt P15692-4 27-135, looked up)
# chain: B1 chain with Y21L, Y25S
# B12: LK-VRB-22s (ligand, human, UniProt P15692-4 27-135, looked up)
# chain: B1 chain with M18E, Y21L, Q22R, Y25S, S63D, R66L
# B13: LK-VRB-21s (ligand, human, UniProt P15692-4 27-135, looked up)
# chain: B1 chain with M18E, Y21L, Q22R, Y25S, M65G, R66L
# B14: LK-VRB-13s (ligand, human, UniProt P15692-4 27-135, looked up)
# chain: B1 chain with M18E, Y25S
# B15: LK-VRB-25s (ligand, human, UniProt P15692-4 27-135, looked up)
# chain: B1 chain with M18E, Y21L, Q22R, Y25S, M65G
# B16: LK-VRB-26s (ligand, human, UniProt P15692-4 27-135, looked up)
# chain: B1 chain with M18E, Y21L, Q22R, Y25S, S63D
# B17: LK-VRB-10s (ligand, human, UniProt P15692-4 27-135, looked up)
# chain: B1 chain with Y25S
# B18: LK-VRB-24s (ligand, human, UniProt P15692-4 27-135, looked up)
# chain: B1 chain with M18E, Y21L, Q22R, Y25S, R66L
# B19: LK-VRB-11s (ligand, human, UniProt P15692-4 27-135, looked up)
# chain: B1 chain with M18E, Y21L
# B20: LK-VRB-12s (ligand, human, UniProt P15692-4 27-135, looked up)
# chain: B1 chain with M18E, Q22R
# B21: LK-VRB-23s (ligand, human, UniProt P15692-4 27-135, looked up)
# chain: B1 chain with M18E, Y21L, Q22R, Y25S, S63D, M65G
# B22: LK-VRB-17s (ligand)
# chain: B1 chain with M18E, Y21L, Q22R
# B23: LK-VRB-18s (ligand)
# chain: B1 chain with M18E, Y21L, Y25S
# Biological target: KDR receptor on HUVEC cells (human, UniProt P35968 20-1356)
# Test: cell-based or functional assay
# Details: not given
# Chain of KDR receptor on HUVEC cells (P35968 20-1356): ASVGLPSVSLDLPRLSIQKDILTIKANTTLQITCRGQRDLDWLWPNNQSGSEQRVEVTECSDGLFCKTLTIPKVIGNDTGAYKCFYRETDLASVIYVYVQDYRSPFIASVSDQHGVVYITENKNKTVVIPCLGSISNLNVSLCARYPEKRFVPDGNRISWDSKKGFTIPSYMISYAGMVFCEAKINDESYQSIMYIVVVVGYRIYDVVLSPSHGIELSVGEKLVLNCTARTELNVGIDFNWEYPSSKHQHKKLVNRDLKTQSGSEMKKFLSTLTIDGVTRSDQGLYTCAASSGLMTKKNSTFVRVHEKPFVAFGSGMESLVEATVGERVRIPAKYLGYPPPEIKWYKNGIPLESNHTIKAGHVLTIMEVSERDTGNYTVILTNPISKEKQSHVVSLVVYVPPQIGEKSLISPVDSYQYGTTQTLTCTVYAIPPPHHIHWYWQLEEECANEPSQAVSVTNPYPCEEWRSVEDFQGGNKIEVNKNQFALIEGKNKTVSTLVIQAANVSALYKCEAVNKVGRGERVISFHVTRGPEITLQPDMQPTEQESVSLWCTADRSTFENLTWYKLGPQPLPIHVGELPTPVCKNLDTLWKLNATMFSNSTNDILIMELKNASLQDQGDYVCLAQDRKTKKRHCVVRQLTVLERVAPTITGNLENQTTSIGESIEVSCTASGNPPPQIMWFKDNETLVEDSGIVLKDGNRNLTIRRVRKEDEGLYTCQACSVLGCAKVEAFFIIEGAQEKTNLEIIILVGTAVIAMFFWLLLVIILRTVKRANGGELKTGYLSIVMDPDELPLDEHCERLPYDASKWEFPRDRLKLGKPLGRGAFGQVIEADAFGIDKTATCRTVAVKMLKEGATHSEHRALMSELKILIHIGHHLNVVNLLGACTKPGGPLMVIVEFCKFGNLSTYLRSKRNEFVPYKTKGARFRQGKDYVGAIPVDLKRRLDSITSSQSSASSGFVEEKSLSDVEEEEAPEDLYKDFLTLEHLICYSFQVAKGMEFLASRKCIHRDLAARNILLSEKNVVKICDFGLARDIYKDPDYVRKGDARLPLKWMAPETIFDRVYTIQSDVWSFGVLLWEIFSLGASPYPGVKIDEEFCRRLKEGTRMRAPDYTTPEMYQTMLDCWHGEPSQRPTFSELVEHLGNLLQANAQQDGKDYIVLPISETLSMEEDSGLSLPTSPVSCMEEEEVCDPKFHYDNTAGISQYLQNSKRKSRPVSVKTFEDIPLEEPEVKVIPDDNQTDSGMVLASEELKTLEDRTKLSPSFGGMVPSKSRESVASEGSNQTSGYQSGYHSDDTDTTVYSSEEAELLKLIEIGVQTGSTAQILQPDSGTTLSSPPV
row,"Endothelial Cell Proliferation Activity (HUVEC, 3H-thymidine)",Molecule
1,0.1 ratio to native VEGF (8-109),B1
2,0.1 ratio to native VEGF (8-109),B2

# Biological target: KDR receptor (Homo sapiens, UniProt P35968)
# Test: KDR receptor binding ELISA (inhibition of biotinylated native VEGF (8–109) binding)
# Details: second figure of the cell, variant midpoint concentration divided by that of native VEGF
# Description: (§1) Receptor binding assays were performed in 96-well immunoplates (Maxisorp, Nunc-Immunoplate, Nalge Nunc International, Rochester, N.Y.). Each well was coated with 100 μl of a solution containing 8 μg/ml of a monoclonal antibody to KDR known as MAKD5 (Genentech, South San Francisco, Calif.) in 50 mM carbonate buffer at pH 9.6 and incubated at 4° C. overnight. The supernatant was discarded, the wells were washed three times in washing buffer (0.05% Tween 20 in PBS), and the plate was blocked (150 μl per well) with block buffer (0.5% BSA, 0.01% thimerosal in PBS) at room temperature for one hour. The supernatant was discarded, and the wells were washed.
# (§2) Aliquots of this mixture (100 μl) were added to the precoated microtiter wells and the plate was incubated for 1 hour at room temperature. […] The wells were then incubated with 3, 3′, 5,5′-tetramethyl benzidine (0.2 gram/liter; Kirkegaard & Perry Laboratories, Gaithersburg, Md.) for about 10 minutes at room temperature. Absorbance was read at 450 nm on a Vmax plate reader (Molecular Devices, Menlo Park, Calif.).
# (§3) Titration curves were fit with a four-parameter nonlinear regression curve-fitting program (KaleidaGraph, Synergy Software, Reading, Pa.).
# Chain of KDR receptor (P35968 20-327 limits assumed): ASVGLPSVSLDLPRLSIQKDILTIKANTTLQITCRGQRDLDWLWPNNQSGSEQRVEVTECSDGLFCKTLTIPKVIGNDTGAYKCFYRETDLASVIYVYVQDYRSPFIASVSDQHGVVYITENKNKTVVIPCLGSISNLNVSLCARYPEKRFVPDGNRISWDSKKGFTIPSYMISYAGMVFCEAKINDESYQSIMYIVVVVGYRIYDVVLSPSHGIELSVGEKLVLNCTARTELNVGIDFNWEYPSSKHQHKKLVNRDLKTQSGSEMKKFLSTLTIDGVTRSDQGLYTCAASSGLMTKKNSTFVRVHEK
row,"Relative Binding Affinity, KDR Receptor: ratio to native VEGF (8–109)",Molecule
1,7 nM/7,B3
2,1 nM/1,B4
3,1 nM/1,B5
4,0.5 nM/0.5,B6
5,1 nM/1,B7
6,2 nM/2,B8
7,0.6 nM/0.6,B9
8,0.5 nM/0.5,B10
9,2 nM/2,B11
10,4 nM/4,B12
11,3 nM/3,B13
12,14 nM/14,B14
13,4 nM/4,B15
14,23 nM/23,B16
15,0.5 nM/0.5,B17
16,10 nM/10,B18
17,2 nM/2,B19
18,0.4 nM/0.4,B20
19,11 nM/11,B21

# Biological target: Flt-1 receptor
# Test: Flt-1 receptor binding ELISA (inhibition of biotinylated native VEGF binding to Flt-IgG)
# Details: first figure of the cell, Flt-IgG, read-out: Relative Binding Affinity, FLT-1 Receptor: concentration at midpoint absorbance
# Description: Receptor binding assays were performed in 96-well immunoplates (Maxisorp, Nunc-Immunoplate, Nalge Nunc International, Rochester, N.Y.). Each well was coated with 100 μl of a solution containing 2 μg/ml of rabbit F(ab′)2 to human IgG Fc (Jackson ImmunoResearch, West Grove, Pa.) in 50 mM carbonate buffer at pH 9.6 and incubated at 4° C. overnight. The supernatant was then discarded, the wells were washed three times in washing buffer (0.05% Tween 20 in PBS), and the plate was blocked (150 μl per well) with block buffer (0.5% BSA, 0.01% thimerosal in PBS) at room temperature for one hour. The supernatant was discarded, and the wells were washed.
# The wells were filled with 100 μl of a solution containing Flt-IgG (a chimeric Flt-human Fc molecule) at 50 ng/ml in assay buffer (0.5% BSA, 0.05% Tween 20 in PBS). The wells were incubated at room temperature for 1 hour and then washed three times in wash buffer (0.05% Tween 20 in PBS).
# as §2, with “the” for “this”, “2 hours” for “1 hour”, “g/liter,” for “gram/liter;”
# as §3
# Chain of Flt-1 receptor (P17948 27-327 limits assumed): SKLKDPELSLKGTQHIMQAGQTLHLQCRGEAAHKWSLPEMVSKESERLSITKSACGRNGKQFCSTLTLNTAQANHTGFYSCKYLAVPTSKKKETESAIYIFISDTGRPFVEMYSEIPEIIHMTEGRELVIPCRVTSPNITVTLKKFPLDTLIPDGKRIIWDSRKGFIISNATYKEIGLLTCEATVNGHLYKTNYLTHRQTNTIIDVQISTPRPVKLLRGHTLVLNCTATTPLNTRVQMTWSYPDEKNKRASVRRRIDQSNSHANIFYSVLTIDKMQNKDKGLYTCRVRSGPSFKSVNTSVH
row,IC50,Molecule
1,> 400 nM,LK-VRB-2s*: VEGF (1–109) variant with D63S/G65M/L66R; KDR selective variant

# Same assay, conditions: second figure of the cell, fold less binding than native VEGF
row,"Relative Binding Affinity, FLT-1 Receptor: ratio to native VEGF (8–109)",Molecule
1,/>35000,B3
2,/>1900,B22
3,/>10000,B8
4,/>1400,B9
5,/>2900,B10
6,/>21000,B11
7,/>30,B12
8,/>5600,B13
9,/>14000,B14
10,/>12000,B15
11,/>25000,B16
12,/>2400,B17
13,/>18000,B18
14,/>14000,B19
15,/>5600,B20
16,/>8500,B21

# Biological target: T1, KDR (1-3) (UniProt P35968 20-327, limits assumed)
# T1 construct: domain: domains 1 to 3; Genentech reagent; also called KDR (1-3) monomer; domains 1 to 3 of KDR
# Test: competition ELISA vs biotinylated native VEGF (8-109) for KDR (1-3)
# Details: not given
# Description: as §1
# as §2, with “3', 5,5'-tetramethyl” for “3′, 5,5′-tetramethyl”
# as §3
# T1 sequence (P35968 20-327 limits assumed): as the sequence (P35968 20-327 limits assumed) above
relative binding affinity (ratio to native VEGF (8-109)),IC50,Molecule
7 ratio,,B3
130 ratio,,B22
130 ratio,130 nM,B23
2 ratio,,B8
0.6 ratio,,B9
0.5 ratio,,B10
2 ratio,,B11
4 ratio,,B12
3 ratio,,B13
14 ratio,,B14
4 ratio,,B15
23 ratio,,B16
0.5 ratio,,B17
10 ratio,,B18
2 ratio,,B19
0.4 ratio,,B20
11 ratio,,B21
